The values that follow come from patent US20060286611A1, “Antibodies against biotinylated histones and related proteins and assays related thereto” (Board of Regents of University of Nebraska, priority 2005, published 2006).

Entries after “also recorded” stand apart in the source; their conditions may differ. No end group written: not given here. Me2 = dimethyl-lysine (dimethyl-epsilon-NH2-L-lysine)

One assay addresses T1, biotinidase (Homo sapiens, UniProt P43251).
T1 construct: 60 μL of human plasma; from tissue; host or cells: human plasma
T1 sequence (P43251 22-523): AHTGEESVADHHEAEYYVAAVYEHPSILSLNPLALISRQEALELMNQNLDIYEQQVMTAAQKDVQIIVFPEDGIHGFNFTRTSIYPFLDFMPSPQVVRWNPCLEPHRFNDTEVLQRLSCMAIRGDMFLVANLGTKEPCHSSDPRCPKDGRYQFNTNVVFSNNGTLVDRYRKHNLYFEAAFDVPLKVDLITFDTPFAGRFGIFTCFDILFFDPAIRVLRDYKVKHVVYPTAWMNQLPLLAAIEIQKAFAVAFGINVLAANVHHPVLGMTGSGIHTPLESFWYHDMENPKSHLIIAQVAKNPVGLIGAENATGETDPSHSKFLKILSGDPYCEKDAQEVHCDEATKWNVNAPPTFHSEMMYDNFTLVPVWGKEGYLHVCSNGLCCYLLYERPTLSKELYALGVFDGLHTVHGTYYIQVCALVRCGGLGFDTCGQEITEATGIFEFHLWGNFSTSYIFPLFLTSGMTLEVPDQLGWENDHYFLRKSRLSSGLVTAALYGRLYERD
The assay is described as follows: Enzymatic biotinylation of synthetic histone H2A and H2A.X peptides by biotinidase. Particulars: human plasma as source of biotinidase, 75 μmol/L biocytin, pH 8.0, 37° C., up to 45 minutes. The class given is biochemical. From the text:
In Examples described above, the inventors developed a procedure to identify amino acid residues in histones that are targets for biotinylation. […] Amino acid substitutions (e.g., lysine-to-alanine substitutions) in synthetic peptides are used to corroborate identification of biotinylation sites. In addition, amino acid modifications (e.g., acetylation of lysines) in peptides can be used to investigate the cross-talk between biotinylation of histones and other known modifications of histones.
Peptides from both the N- and C-terminal regions of histone H2A and H2A.X were included in the analysis of biotinylation sites. […] Reactions were quenched by adding an equal volume of Tricine gel loading buffer (Invitrogen, Carlsbad, Calif.).
Consider “AKAKSRSSR [Peptide T16S12-20, N-terminus of histone H2A.X, amino acids 12-20]”, for which the “enzymatic biotinylation by biotinidase, peptide-bound biotin probed with streptavidin peroxidase” value is “good targets for biotinylation; also recorded: biotinylated only moderately”.

For “AKAKTRSSR [Peptide N12-20, histone H2A amino acids 12-20]”, the “enzymatic biotinylation by biotinidase, peptide-bound biotin probed with streptavidin peroxidase” value is reported as “not a good target; also recorded: poor target for biotinylation”.

Take “ATVGPKAPSG [Peptide C122-131, C-terminus of histone H2A.X, amino acids 122-131]”: the “enzymatic biotinylation by biotinidase, peptide-bound biotin probed with streptavidin peroxidase” value was “not biotinylated”.

“GGKARAKA [Peptide N7-14, histone H2A amino acids 7-14]”: the “enzymatic biotinylation by biotinidase, peptide-bound biotin probed with streptavidin peroxidase” value is reported as “good target for biotinylation; also recorded: heavily biotinylated; also recorded: moderate target for biotinylation”.

For the compound “GKKATQASQEY [Peptide C132-142, C-terminus of histone H2A.X, amino acids 132-142]”, the “enzymatic biotinylation by biotinidase, peptide-bound biotin probed with streptavidin peroxidase” value is “not biotinylated”.

With “K5,9A1-9: histone H2A N1-9, both lysine residues substituted with alanines (SGRGAQGGA)”, the “enzymatic biotinylation by biotinidase, peptide-bound biotin probed with streptavidin peroxidase” value is recorded as “no biotinylation was detectable”.

As to “K5A1-9: histone H2A N1-9, K5 substituted with alanine (SGRGAQGGK) [Peptide K5A1-9]”, the “enzymatic biotinylation by biotinidase, peptide-bound biotin probed with streptavidin peroxidase” value was “did not decrease biotinylation”.

Consider “K13,15A12-20: histone H2A N12-20, both lysine residues substituted with alanine (AAAATRSSR)”, for which the “enzymatic biotinylation by biotinidase, peptide-bound biotin probed with streptavidin peroxidase” value was “no biotinylation was detectable”.

Regarding “K13,15A,T16S12-20: T16S12-20 with both lysine residues substituted with alanine (AAAASRSSR)”, the “enzymatic biotinylation by biotinidase, peptide-bound biotin probed with streptavidin peroxidase” value is “no biotinylation was detectable”.

In the case of “K13A12-20: histone H2A N12-20, K13 substituted with alanine (AAAKTRSSR) [Peptide K13A12-20]”, the “enzymatic biotinylation by biotinidase, peptide-bound biotin probed with streptavidin peroxidase” value is “did not render K15 a good target”.

For “K13A,T16S12-20: T16S12-20 with K13 substituted with alanine (AAAKSRSSR)”, the “enzymatic biotinylation by biotinidase, peptide-bound biotin probed with streptavidin peroxidase” value is “No biotinylation was detectable”.

Take “K15A12-20: histone H2A N12-20, K15 substituted with alanine (AKAATRSSR) [Peptide K15A12-20]”: the “enzymatic biotinylation by biotinidase, peptide-bound biotin probed with streptavidin peroxidase” value was “good target for biotinylation”.

As to “K15A,T16S12-20: T16S12-20 with K15 substituted with alanine (AKAASRSSR)”, the “enzymatic biotinylation by biotinidase, peptide-bound biotin probed with streptavidin peroxidase” value is reported as “decreased moderately”.

As for “K125,127,129A122-129: C122-129 with all lysine residues substituted with alanine (SHHAAAGA)”, the “enzymatic biotinylation by biotinidase, peptide-bound biotin probed with streptavidin peroxidase” value is “no biotinylation was detectable”.

Consider “K125,127A122-129: C122-129 with K125 and K127 substituted with alanine (SHHAAAGK)”, for which the “enzymatic biotinylation by biotinidase, peptide-bound biotin probed with streptavidin peroxidase” value is “decreased only moderately”.

In the case of “K125,129A122-129: C122-129 with K125 and K129 substituted with alanine (SHHAAKGA)”, the “enzymatic biotinylation by biotinidase, peptide-bound biotin probed with streptavidin peroxidase” value was “considerable decrease of biotinylation”.

Consider “K127,129A122-129: C122-129 with K127 and K129 substituted with alanine (SHHAAAGA)”, for which the “enzymatic biotinylation by biotinidase, peptide-bound biotin probed with streptavidin peroxidase” value is on record as “considerable decrease of biotinylation”.

For “Q6T,K5A1-9: Q6T1-9 with K5 substituted with alanine (SGRGATGGK)”, the “enzymatic biotinylation by biotinidase, peptide-bound biotin probed with streptavidin peroxidase” value is “decreased biotinylation only moderately”.

With “Q6T,K9A1-9: Q6T1-9 with K9 substituted with alanine (SGRGKTGGA)”, the “enzymatic biotinylation by biotinidase, peptide-bound biotin probed with streptavidin peroxidase” value is recorded as “substantially decreased biotinylation”.

On to “SEQ ID NO:73: histone H2A N1-9 with acetylation of K5 (SGRGK(Ac)TGGK)”, for which the “enzymatic biotinylation by biotinidase, peptide-bound biotin probed with streptavidin peroxidase” value is “moderate decrease”.

On to “SEQ ID NO:74: histone H2A peptide containing acetylated K9 and free K5 (SGRGKTGGK(Ac))”, for which the “enzymatic biotinylation by biotinidase, peptide-bound biotin probed with streptavidin peroxidase” value is reported as “not a target for biotinylation”.

For the compound “SEQ ID NO:75: histone H2A N7-14 with dimethylation of K13 (GGKARAK(Me2)A)”, the “enzymatic biotinylation by biotinidase, peptide-bound biotin probed with streptavidin peroxidase” value is listed as “decreased the biotinylation of K9”.

As to “SEQ ID NO:76: histone H2A N7-14 with acetylation of K13 (GGKARAK(Ac)A)”, the “enzymatic biotinylation by biotinidase, peptide-bound biotin probed with streptavidin peroxidase” value is “decreased the biotinylation of K9”.

Turning to “SGRGKTGGK [Peptide Q6T1-9, N-terminus of histone H2A.X, amino acids 1-9]”, the “enzymatic biotinylation by biotinidase, peptide-bound biotin probed with streptavidin peroxidase” value is reported as “good targets for biotinylation”.

In the case of “SHHKAKGK [Peptide C122-129, histone H2A amino acids 122-129]”, the “enzymatic biotinylation by biotinidase, peptide-bound biotin probed with streptavidin peroxidase” value is on record as “good target for biotinylation; also recorded: good substrate for biotinylation”.

Another assay has as its target T1, biotinidase. The assay is described as follows: Enzymatic biotinylation of synthetic histone H3 peptides by biotinidase. It counts as biochemical. Conditions: biotinidase and biocytin, 45 min.
For `NCCC[C@H](N)C(=O)O` [ornithine], the “enzymatic biotinylation by biotinidase, peptide-bound biotin probed with streptavidin-peroxidase” value was “not biotinylated”.

“K4,9A1-9: histone H3 amino acids 1 to 9, K4 and K9 substituted by alanine (ARTAQTARA)”: the “enzymatic biotinylation by biotinidase, peptide-bound biotin probed with streptavidin-peroxidase” value is recorded as “no binding of biotin was detectable”.

With “K4A1-9: histone H3 amino acids 1 to 9, K4 substituted with alanine (ARTAQTARK) [Peptide K4A1-9]”, the “enzymatic biotinylation by biotinidase, peptide-bound biotin probed with streptavidin-peroxidase” value is “barely detectable”.

As for “K9,14A9-16: histone H3 amino acids 9 to 16, K9 and K14 substituted with alanine (ASTGGAAP)”, the “enzymatic biotinylation by biotinidase, peptide-bound biotin probed with streptavidin-peroxidase” value is recorded as “no binding of biotin was detectable”.

With “K9A9-16: histone H3 amino acids 9 to 16, K9 substituted with alanine (ASTGGKAP) [Peptide K9A9-16]”, the “enzymatic biotinylation by biotinidase, peptide-bound biotin probed with streptavidin-peroxidase” value is listed as “poor target for biotinylation”.

For the compound “K14A9-16: histone H3 amino acids 9 to 16, K14 substituted with alanine (KSTGGAAP) [Peptide K14A9-16]”, the “enzymatic biotinylation by biotinidase, peptide-bound biotin probed with streptavidin-peroxidase” value is “heavily biotinylated”.

Regarding “K18,23A16-23: histone H3 amino acids 16 to 23, K18 and K23 substituted with alanine (PRAQLATA)”, the “enzymatic biotinylation by biotinidase, peptide-bound biotin probed with streptavidin-peroxidase” value is “no binding of biotin was detectable”.

As to “K18,23A18-25: histone H3 amino acids 18-25, K18 and K23 substituted with alanine (AQLATAAA)”, the “enzymatic biotinylation by biotinidase, peptide-bound biotin probed with streptavidin-peroxidase” value is listed as “No biotinylation was detected”.

As for “K18A16-23: histone H3 amino acids 16 to 23, K18 substituted with alanine (PRAQLATK) [Peptide K18A16-23]”, the “enzymatic biotinylation by biotinidase, peptide-bound biotin probed with streptavidin-peroxidase” value is given as “weak”.

Take “K18A18-25: histone H3 amino acids 18-25, K18 substituted with alanine (AQLATKAA) [Peptide K18A18-25]”: the “enzymatic biotinylation by biotinidase, peptide-bound biotin probed with streptavidin-peroxidase” value was “barely detectable”.

Regarding “K23A16-23: histone H3 amino acids 16 to 23, K23 substituted with alanine (PRKQLATA) [Peptide K23A16-23]”, the “enzymatic biotinylation by biotinidase, peptide-bound biotin probed with streptavidin-peroxidase” value is “weak”.

As for “K23A18-25: histone H3 amino acids 18-25, K23 substituted with alanine (KQLATAAA) [Peptide K23A18-25]”, the “enzymatic biotinylation by biotinidase, peptide-bound biotin probed with streptavidin-peroxidase” value was “heavily biotinylated”.

Regarding “N9-16: histone H3 amino acids 9-16, including K9 and K14 (KSTGGKAP; UniProt P68431 10-17, looked up, fragment) [Peptide N9-16]”, the “enzymatic biotinylation by biotinidase, peptide-bound biotin probed with streptavidin-peroxidase” value is reported as “relatively poor targets for biotinylation”.

For “N16-23: histone H3 amino acids 16-23, including K18 and K23 (PRKQLATK; UniProt P68431 17-24, looked up, fragment) [Peptide N16-23]”, the “enzymatic biotinylation by biotinidase, peptide-bound biotin probed with streptavidin-peroxidase” value was “moderate target for biotinylation”.
